From PMC9638917, “Non-canonical Staphylococcus aureus pathogenicity island repression”

Columns and labels:
[1] = biological target: SaPI1 Stl repressor (Stl^SaPI1), expressed alone with an N-terminal His6-tag and TEV site (Staphylococcus aureus (pathogenicity island SaPI1)); test: SEC-SAXS; 10.0 mg/ml Stl^SaPI1 and 6.5 mg/ml Stl^SaPI1-Sri (His6 tag on Sri); Superdex 200 Increase 3.2, 10 mM Tris pH 8, 1% (w/v) sucrose; mass by Bayesian inference
[2] = biological target: SaPI1 Stl repressor (Stl^SaPI1), expressed alone with an N-terminal His6-tag and TEV site (Staphylococcus aureus (pathogenicity island SaPI1)); test: SEC-MALS; 2 mg/ml, Stl alone or in complex with Sri; 50 mM Tris-HCl pH 7.5, 250 mM NaCl, 5 mM MgCl2; Protein KW403 column (Shodex), 0.4 ml/min
[3] = biological target: SaPI1 Stl repressor (Stl^SaPI1), untagged, co-expressed with His6-Sri (Staphylococcus aureus (pathogenicity island SaPI1)); test: SEC-SAXS; 10.0 mg/ml Stl^SaPI1 and 6.5 mg/ml Stl^SaPI1-Sri (His6 tag on Sri); Superdex 200 Increase 3.2, 10 mM Tris pH 8, 1% (w/v) sucrose; mass by Bayesian inference
[4] = biological target: SaPI1 Stl repressor (Stl^SaPI1), untagged, co-expressed with His6-Sri (Staphylococcus aureus (pathogenicity island SaPI1)); test: crystal structure; 80α Sri-Stl^SaPI1 SeMet derivative, His6-tag of Sri removed; sitting drop, 15 °C, 0.4 M ammonium phosphate, 25% PEG200; SAD, 2.9 Å
[5] = biological target: SaPI1 Stl repressor (Stl^SaPI1), untagged, co-expressed with His6-Sri (Staphylococcus aureus (pathogenicity island SaPI1)); test: SEC-MALS; 2 mg/ml, Stl alone or in complex with Sri; 50 mM Tris-HCl pH 7.5, 250 mM NaCl, 5 mM MgCl2; Protein KW403 column (Shodex), 0.4 ml/min
[6] = biological target: SaPI1 Stl repressor L201E mutant (Stl^(SaPI1 L201E)), expressed alone (Staphylococcus aureus (pathogenicity island SaPI1)); test: as above
[7] = biological target: SaPI1 Stl repressor L201E mutant (Stl^(SaPI1 L201E)), untagged, co-expressed with His6-Sri (Staphylococcus aureus (pathogenicity island SaPI1)); test: crystal structure; 80α Sri-Stl^(SaPI1 L201E), His6-tag of Sri removed; sitting drop, 15 °C, 0.1 M Tris-HCl pH 8.5, 22% PEG350; molecular replacement, 2.97 Å
StlSaPI1 = StlSaPI1 (Staphylococcus aureus pathogenicity …, UniProt O54475 1-247); test: EMSA; two complex species; BLI: 50 mM Tris-HCl pH 8, 300 mM NaCl, 5 mM MgCl2, 50 uM EDTA, 0.005% Tween, 25 C; EMSA: 50 mM Tris-HCl pH 8, 5 mM MgCl2, 1 mM DTT, 0.1 mM EDTA, 5% glycerol, 1; conditions: protein: recombinant; tags: N-terminal His6 + TEV site; chain copies: 4; near blunt as printed

“SaPI1 Stl repressor (Stl^SaPI1), expressed alone with an N-terminal His6-tag and TEV site (natural protein)” showed a stoichiometry N [1] of 4 and a stoichiometry N [2] of 4.

For “SaPI1 Stl repressor (Stl^SaPI1), untagged, co-expressed with His6-Sri (natural protein)”, the stoichiometry N [3] was 4, the stoichiometry N [4] was 4 and the stoichiometry N [5] was 4.

“SaPI1 Stl repressor L201E mutant (Stl^(SaPI1 L201E)), expressed alone (natural protein)” was tested, and the stoichiometry N [6] was 2.

“SaPI1 Stl repressor L201E mutant (Stl^(SaPI1 L201E)), untagged, co-expressed with His6-Sri (natural protein)” gave a stoichiometry N [7] of 2.

B1: Operator 1-4 (dsDNA)
DNA 1: GGATAAGTTGTACTTTGAGTACAATATTTTAAAAAATGAAAAAAAAAAAAGAAGTGTGTAATATTTGTTTAAAAAACAAAAAAAAAAAAAGTACTTGTAGTACTAAAAGAAC
DNA 2: GGTTCTTTTAGTACTACAAGTACTTTTTTTTTTTTTGTTTTTTAAACAAATATTACACACTTCTTTTTTTTTTTTCATTTTTTAAAATATTGTACTCAAAGTACAACTTATCC
B1: binds (StlSaPI1).
